Assay results reported in the supplement of paper PMC11246515.
± gives the standard deviation of the averaged measurements.

Assay: total protein half-life in vivo (active degradation + dilution); higher = more stable protein
[1] = E. coli NCM3722 delta-clpP delta-lon delta-hslV, growth: N-lim chemostat, doubling time 6 h
[2] = E. coli NCM3722 delta-clpP, growth: N-lim chemostat, doubling time 6 h
[3] = E. coli NCM3722 delta-hslV, growth: N-lim chemostat, doubling time 6 h
[4] = E. coli NCM3722 delta-lon, growth: N-lim chemostat, doubling time 6 h
[5] = E. coli NCM3722 delta-smpB, growth: N-lim chemostat, doubling time 6 h
[6] = wild type E. coli NCM3722, growth: C-lim chemostat, doubling time 3 h
[7] = wild type E. coli NCM3722, growth: C-lim chemostat, doubling time 6 h
[8] = wild type E. coli NCM3722, growth: C-lim chemostat, doubling time 12 h
[9] = wild type E. coli NCM3722, growth: N-lim chemostat, doubling time 6 h
[10] = wild type E. coli NCM3722, growth: N-lim chemostat, doubling time 12 h
[11] = wild type E. coli NCM3722, growth: P-lim chemostat, doubling time 6 h
[12] = wild type E. coli NCM3722, growth: P-lim chemostat, doubling time 12 h

| Sequence | total protein half-life in vivo [1] [h] | total protein half-life in vivo [2] [h] | total protein half-life in vivo [3] [h] | total protein half-life in vivo [4] [h] | total protein half-life in vivo [5] [h] | total protein half-life in vivo [6] [h] | total protein half-life in vivo [7] [h] | total protein half-life in vivo [8] [h] | total protein half-life in vivo [9] [h] | total protein half-life in vivo [10] [h] | total protein half-life in vivo [11] [h] | total protein half-life in vivo [12] [h] |
| --- | --- | --- | --- | --- | --- | --- | --- | --- | --- | --- | --- | --- |
| MKLFYKPGACSLASHITLRESGKDFTLVSVDLMKKRLENGDDYFAVNPKGQVPALLLDDGTLLTEGVAIMQYLADSVPDRQLLAPVNSISRYKTIEWLNYIATELHKGFTPLFRPDTPEEYKPTVRAQLEKKLQYVNEALKDEHWICGQRFTIADAYLFTVLRWAYAVKLNLEGLEHIAAFMQRMAERPEVQDALSAEGLK [P0A9D2] | 4.9 ± 0.3 | 5.74 ± 1.9 | 4.81 ± 0.22 | 6.34 ± 1.4 | 4.64 ± 0.58 | 2.84 ± 0.23 | 5.69 ± 0.32 | 11.6 ± 2.5 | 4.81 ± 0.2 | 9.9 ± 0.87 | 5.44 ± 0.29 | 10.6 ± 0.74 |
| MKLGFIGLGIMGTPMAINLARAGHQLHVTTIGPVADELLSLGAVSVETARQVTEASDIIFIMVPDTPQVEEVLFGENGCTKASLKGKTIVDMSSISPIETKRFARQVNELGGDYLDAPVSGGEIGAREGTLSIMVGGDEAVFERVKPLFELLGKNITLVGGNGDGQTCKVANQIIVALNIEAVSEALLFASKAGADPVRVRQALMGGFASSRILEVHGERMIKRTFNPGFKIALHQKDLNLALQSAKALALNLPNTATCQELFNTCAANGGSQLDHSALVQALELMANHKLA | 4.94 ± 0.21 | 3.37 ± 1.2 | – | 3.23 | – | – | – | – | – | – | 2.4 ± 2 | 2.16 |
| MKLHHRMLRHFIAASVIVLTSSFLIFELVASDRAMSAYLRYIVQKADSSFLYDKYQNQSIAAHVMRALAAEQSEVSPEQRRAICEAFESANNTHGLNLTAHKYPGLRGTLQTASTDCDTIVEAAALLPAFDQAVEGNRHQDDYGSGLGMAEEKFHYYLDLNDRYVYFYEPVNVEYFAMNNWSFLQSGSIGIDRKDIEKVFTGRTVLSSIYQDQRTKQNVMSLLTPVYVAGQLKGIVLLDINKNNLRNIFYTHDRPLLWRFLNVTLTDTDSGRDIIINQSEDNLFQYVSYVHDLPGGIRVSLSIDILYFITSSWKSVLFWILTALILLNMVRMHFRLYQNVSRENISDAMTGLYNRKILTPELEQRLQKLVQSGSSVMFIAIDMDKLKQINDTLGHQEGDLAITLLAQAIKQSIRKSDYAIRLGGDEFCIILVDSTPQIAAQLPERIEKRLQHIAPQKEIGFSSGIYAMKENDTLHDAYKASDERLYVNKQNKNSRS | 6.76 ± 0.25 | 6.49 ± 0.48 | 6.32 ± 0.99 | 6.49 ± 0.3 | 5.84 ± 0.39 | 3.35 ± 0.26 | – | – | 6.57 ± 0.21 | 14.1 ± 0.84 | 6.25 ± 0.64 | 12.9 ± 0.26 |
| MKLIPRSSDISPGIDGICPGPFPPNGFTVLTDAAYGNGDCFGLYWPIGQEHKLPIVCETYHDEWRIVPAFSSIKKFEEWLEVNDDDPHENGISIEDQDFAANLFRVARKCLSTGRLDDALPLLQRATEQLPEVSEYWLALAIQYRRCKKTEAAAQAALNAYLGNWAFGVPDNKVIHLLSQAADVPNFQDDPVIQCIKEQGLDLSFGGTKENNNYPLMQMCVDTYFAQRKPLQALTLLHNYAWIMSSETTAFQERYDFNIDEWRAKFRQLCLEYFGDSRTQFT | 3.49 | – | 3.01 | – | 3.03 ± 0.077 | 2.62 ± 0.22 | 4.63 ± 0.52 | 8.76 | 3.47 ± 0.64 | 5.75 ± 0.36 | – | 9.99 |
| MKLIRGIHNLSQAPQEGCVLTIGNFDGVHRGHRALLQGLQEEGRKRNLPVMVMLFEPQPLELFATDKAPARLTRLREKLRYLAECGVDYVLCVRFDRRFAALTAQNFISDLLVKHLRVKFLAVGDDFRFGAGREGDFLLLQKAGMEYGFDITSTQTFCEGGVRISSTAVRQALADDNLALAESLLGHPFAISGRVVHGDELGRTIGFPTANVPLRRQVSPVKGVYAVEVLGLGEKPLPGVANIGTRPTVAGIRQQLEVHLLDVAMDLYGRHIQVVLRKKIRNEQRFASLDELKAQIARDELTAREFFGLTKPA [P0AG40] | 4.18 ± 0.72 | 5.21 ± 0.77 | 4.54 ± 0.2 | 5.2 ± 0.77 | 4.43 ± 0.14 | 3.15 ± 0.15 | 5.64 ± 0.3 | 10.5 ± 0.48 | 4.62 ± 0.35 | 7.426 ± 0.064 | 5.441 ± 0.05 | 11.83 ± 0.032 |
| MKLLIVEDEKKTGEYLTKGLTEAGFVVDLADNGLNGYHLAMTGDYDLIILDIMLPDVNGWDIVRMLRSANKGMPILLLTALGTIEHRVKGLELGADDYLVKPFAFAELLARVRTLLRRGAAVIIESQFQVADLMVDLVSRKVTRSGTRITLTSKEFTLLEFFLRHQGEVLPRSLIASQVWDMNFDSDTNAIDVAVKRLRGKIDNDFEPKLIQTVRGVGYMLEVPDGQ [P0ACZ8] | 5.08 ± 1 | 4.18 ± 0.13 | 4.01 ± 0.29 | 4.738 ± 0.0044 | 3.77 ± 0.45 | 2.77 ± 0.42 | 5.62 ± 0.89 | 8.61 ± 0.84 | 4.53 ± 0.78 | 7.44 ± 0.99 | 4.5 ± 0.3 | 9.01 ± 0.29 |
